Values quoted from earlier work in paper PMC8168288.

Target: BCOR peptide (Homo sapiens) (UniProt Q6W2J9)
Test: SPR

Chain of BCOR peptide (Homo sapiens) (Q6W2J9 whole entry): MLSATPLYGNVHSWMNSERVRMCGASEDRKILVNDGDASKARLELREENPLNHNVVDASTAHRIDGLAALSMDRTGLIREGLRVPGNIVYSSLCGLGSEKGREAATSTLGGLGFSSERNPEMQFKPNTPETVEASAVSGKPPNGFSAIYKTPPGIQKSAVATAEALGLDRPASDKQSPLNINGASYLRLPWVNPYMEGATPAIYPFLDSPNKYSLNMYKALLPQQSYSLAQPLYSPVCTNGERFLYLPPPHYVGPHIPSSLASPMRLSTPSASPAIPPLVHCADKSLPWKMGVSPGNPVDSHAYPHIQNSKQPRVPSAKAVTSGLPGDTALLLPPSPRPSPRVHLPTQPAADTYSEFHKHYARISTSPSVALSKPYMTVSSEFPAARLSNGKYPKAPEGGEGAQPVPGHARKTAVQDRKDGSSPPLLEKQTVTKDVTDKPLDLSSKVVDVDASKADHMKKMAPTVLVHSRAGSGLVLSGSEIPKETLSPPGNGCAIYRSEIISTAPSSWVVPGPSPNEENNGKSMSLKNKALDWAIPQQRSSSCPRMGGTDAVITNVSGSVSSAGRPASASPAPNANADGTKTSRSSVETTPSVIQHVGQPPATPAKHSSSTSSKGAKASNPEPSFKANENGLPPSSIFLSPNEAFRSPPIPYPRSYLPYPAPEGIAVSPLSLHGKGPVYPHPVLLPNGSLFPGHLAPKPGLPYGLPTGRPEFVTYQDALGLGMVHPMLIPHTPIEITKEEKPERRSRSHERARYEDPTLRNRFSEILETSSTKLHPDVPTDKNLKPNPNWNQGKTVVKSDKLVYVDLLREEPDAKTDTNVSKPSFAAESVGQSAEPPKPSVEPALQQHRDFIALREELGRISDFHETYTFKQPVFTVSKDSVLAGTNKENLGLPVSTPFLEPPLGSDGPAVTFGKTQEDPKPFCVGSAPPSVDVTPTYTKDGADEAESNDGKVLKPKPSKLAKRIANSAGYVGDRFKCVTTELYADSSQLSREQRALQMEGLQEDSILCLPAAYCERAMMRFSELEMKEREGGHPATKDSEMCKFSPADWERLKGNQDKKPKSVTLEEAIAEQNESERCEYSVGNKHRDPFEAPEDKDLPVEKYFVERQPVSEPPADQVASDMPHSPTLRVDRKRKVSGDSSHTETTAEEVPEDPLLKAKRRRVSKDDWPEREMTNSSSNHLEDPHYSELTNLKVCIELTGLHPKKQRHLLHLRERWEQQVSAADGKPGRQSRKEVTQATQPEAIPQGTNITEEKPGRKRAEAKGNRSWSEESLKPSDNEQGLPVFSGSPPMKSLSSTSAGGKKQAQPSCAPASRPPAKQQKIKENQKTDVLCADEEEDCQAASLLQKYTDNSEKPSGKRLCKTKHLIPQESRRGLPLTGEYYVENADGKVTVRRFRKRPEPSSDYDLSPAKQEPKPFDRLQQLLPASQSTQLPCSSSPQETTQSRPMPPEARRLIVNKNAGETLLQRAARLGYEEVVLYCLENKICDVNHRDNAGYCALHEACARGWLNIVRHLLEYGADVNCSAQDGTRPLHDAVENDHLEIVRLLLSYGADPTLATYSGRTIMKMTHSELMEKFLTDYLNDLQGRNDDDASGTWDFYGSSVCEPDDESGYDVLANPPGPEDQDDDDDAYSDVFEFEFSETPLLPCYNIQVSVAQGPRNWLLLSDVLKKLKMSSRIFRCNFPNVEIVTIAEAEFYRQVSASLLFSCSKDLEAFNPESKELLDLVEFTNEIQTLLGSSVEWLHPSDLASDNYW

Kd: 6 µM
Substance: BCL6 BTB (from UniProt P41182)
